In patent US20200115422A1 (OXFORD UNIVERSITY INNOVATION, published 2020):

B1: SnoopTagJr:DogTag competitor peptide (peptide)
peptide 1: KLGSIEFIKVNK
peptide 2: DIPATYEFTDGKHYITNEPIPPK
modifications: not fully specified; Asn 17 joined by an isopeptide bond to Lys 9 of SnoopTagJr; Lys 9 joined by an isopeptide bond to Asn 17 of DogTag
notes: Made from SUMO-DogTag and synthetic SnoopTagJr peptide with immobilised HaloTag7-SnoopLigase, then cut from SUMO by Ulp1; also called SnoopTagJr:DogTag peptide conjugate; DogTag:SnoopTagJr peptide

Columns and labels:
[1] = molecular target: AffiHER2-DogTag; assay: cell-based or functional assay
[2] = molecular target: DogTag-HaloTag7SS fusion protein; assay: cell-based or functional assay
[3] = molecular target: DogTag-mClover3; assay: cell-based or functional assay
[4] = molecular target: MBP-DogTag; assay: cell-based or functional assay
[5] = molecular target: SUMO-DogTag; assay: cell-based or functional assay
[6] = molecular target: IMX-DogTag; assay: cell-based or functional assay
[7] = molecular target: T1, biotinylated SnoopLigase (biotin on the AP peptide (BirA biotinylation)); assay: competition elution at 37 °C from biotin-SnoopLigase on streptavidin-agarose; SDS-PAGE
T1 construct: Captured or immobilised on streptavidin-agarose in the elution experiments; also called Biotin-SnoopLigase; biotin-SnoopLigase; not shown: N-terminal His6-tag and flexible GS-rich linker; AP, substrate peptide for BirA biotinylation
T1 chain: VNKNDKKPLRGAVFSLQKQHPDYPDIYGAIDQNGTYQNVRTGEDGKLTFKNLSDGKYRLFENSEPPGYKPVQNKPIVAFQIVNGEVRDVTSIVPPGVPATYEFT

Molecule	Percentage of DogTag partner reacted [1]	Percentage of SnoopTagJr partner reacted [1]	reaction yield [2]	Percentage of DogTag partner reacted [3]	Percentage of SnoopTagJr partner reacted [3]	Percentage of DogTag partner reacted [4]	Percentage of SnoopTagJr partner reacted [4]	Percentage of DogTag partner reacted [5]	Percentage of SnoopTagJr partner reacted [5]	reaction yield [5]	reaction yield [6]	binding result [7]
SnoopTagJr-AffiHER2	99.9%	100%	90%	94%	99.8%	98.4%	100%	99.9%	99.9%	99%	–	–
HaloTag7SS-SnoopTagJr	100%	99.3%	–	96.1%	98%	97%	–	99.7%	99%	–	–	–
SnoopTagJr-MBP	–	–	–	–	–	–	–	–	–	–	96%	–
MBP-SnoopTagJr	100%	93.3%	–	85.4%	79.5%	95%	–	99%	99.1%	–	–	–
SnoopTagJr-mEGFP	99.9%	99.9%	–	82.3%	89.4%	87.8%	99.7%	99.1%	100%	–	–	–
B1	–	–	–	–	–	–	–	–	–	–	–	binds
